Where “and” joins values, the source holds several entries; their conditions need not be identical. Equal entries are not always repeated. Where two headings read alike, the source gives them in different places. Marks after values point to notes of the source that are not given here.
What was measured:
[1] = single administration of solution, oral, healthy male volunteers; cited from earlier work
HIV-1 [2] = conditions: dose-dependent; treatment period of 10-14 days; cited from earlier work
[3] = in vivo; cited from earlier work
CCR5 [4] = molecular target: T1, CCR5 (Homo sapiens, UniProt P51681); design: endogenous in cells; conditions: for 29 days after treatment with both 5 and 10 mg/kg doses; cited from earlier work
R5 HIV-1 [5] = conditions: cited from earlier work
CCR5 [6] = molecular target: T1, CCR5; conditions: cited from earlier work
[7] = cited from earlier work
[8] = in vivo
[9] = First Phase 2b treatment substitution study, CD4 cell count and safety; conditions: for CD4 cell count: individual subjects
Source text: Efficacy assessments at each week included assessment of viral load and CD4 cells count. Safety assessments consisted of physical exam, lab, and adverse event assessments at each treatment and follow-up visit.
The Per Protocol (PP) population was defined as the set of subjects who meet the ITT population requirements, and were not associated with a major protocol violation. This population was identified before the database lock. The PP population will be the primary analysis population for the analysis of primary and secondary endpoints. […] This population will be used for the analysis of safety parameters.

HIV-1 [10] = conditions: cited from earlier work
[11] = subjects treated with SC PRO 140; cited from earlier work
[12] = cited from earlier work; remark: listed apart in the source
HIV-1 [13] = conditions: antiviral; cited from earlier work
R5 HIV-1 [14] = conditions: cited from earlier work; remark: listed apart in the source
HIV-1 [15] = conditions: cited from earlier work; remark: listed apart in the source
HIV-1 [16] = conditions: cited from earlier work; remark: listed apart in the source
[17] = molecular target: CCR5 on circulating lymphocytes (Homo sapiens, UniProt P51681); conditions: single IV injection; cited from earlier work
HIV-1 [18] = conditions: repeated administration; cited from earlier work
HIV-1 [19] = test system: HIV-1
Protocol: All potential study patients were screened and for entry and must be HIV positive with the type of virus, ‘R5’, that uses the coreceptor CCR5 for cell entry and infection.
The first phase 2b TS study, also noted above, was conducted based on the following protocol. The TS study was for the Human Immunodeficiency Virus Type-1 (HIV-1) Infection indication. The TS study involved forty patients, was 14 weeks long, and patients' viral loads were checked weekly. Patients enrolled in the study had undetectable viral load at day one of the study (viral load<50). […] Failure of a patient under study was determined to occur if their viral load (VL) was measured at >400 two times.
Patient enrollment was staggered in this study to facilitate adequate safety monitoring. A lead cohort included 12 subjects. Enrollment of additional 28 subjects was initiated after approval by the independent DSMB.
Subjects who met all eligibility criteria, as per data gathered from Screening Visit were eligible for treatment. […] The first treatment visit took place within 42 days of the screening visit. Eligible subjects received up to 14 treatments, given every week (±3 days) or until virologic failure, whichever occurred first. Visits during the treatment phase commenced on T1, i.e. the date of first treatment, with weekly visits (±3 days) thereafter.
Subjects who experienced virologic failure (defined as two consecutive HIV-1 RNA levels of ≥400 copies/ml separated by at least 3 days) at any time during the treatment phase underwent the virologic failure (VF) visit assessments and then exited the Treatment Phase to enter the follow-up phase of the study.
Subjects who experienced VF were followed up every 4 weeks until the viral suppression was achieved (i.e., plasma HIV-1 RNA levels to return back to <50 copies/mL).
Efficacy Analysis. The main analysis of primary and secondary endpoint will be conducted on the PP population and ITT population will be used for supportive analysis. […] VF is defined as two consecutive HIV-1 RNA levels of ≥400 copies/ml separated by at least 3 days. […] The statistical comparison will be conducted using Wilcoxon rank sum test and the median time to VF for this study will be compared to 30 days.

[20] = cited from earlier work; for mean change in CD4+ cell counts from baseline: 5 mg/kg IV
HIV-1 [21] = experiment: Second Phase 2b extension treatment substitution study, PRO 140 monotherapy; assay type: in vivo, human
Protocol: As with the first TS study, only subjects with exclusive CCR5-tropic virus were to be enrolled. However, 6 out of 16 subjects were determined to have dual- or mixed-tropic (D/M) virus when screening blood samples were tested by HIV-1 Co-receptor Tropism by Proviral DNA method or Ultradeep Sequencing with Reflex (Quest Diagnostics), as a retrospective exploratory analysis.

HIV-1 [22] = conditions: based on pharmacodynamic data from prior SC and IV studies
Protocol: The maximal change in HIV-1 viral load from baseline was determined at any point 59 days after initiation of therapy. To allow approximate comparisons between the IV and SC doses, the overall AUC observed for repeat SC doses was conservatively estimated by multiplying the measured AUC0-7d by the number of doses administered. Viral load and AUC data were fit to an Emax equation: E=Emax×AUC/(AUC+AUC50).

[23] = interim, first cohort of 12 patients

T1 sequence (P51681 whole entry): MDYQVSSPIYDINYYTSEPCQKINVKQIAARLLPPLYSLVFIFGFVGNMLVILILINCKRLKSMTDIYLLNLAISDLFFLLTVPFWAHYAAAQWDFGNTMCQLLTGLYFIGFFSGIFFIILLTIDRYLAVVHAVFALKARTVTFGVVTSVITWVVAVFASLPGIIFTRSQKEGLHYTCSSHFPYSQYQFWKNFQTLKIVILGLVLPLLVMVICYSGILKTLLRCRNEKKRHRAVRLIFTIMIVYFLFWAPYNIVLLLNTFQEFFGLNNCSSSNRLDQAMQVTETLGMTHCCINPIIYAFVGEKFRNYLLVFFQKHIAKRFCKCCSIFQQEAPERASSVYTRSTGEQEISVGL
CCR5 on circulating lymphocytes, sequence (P51681 whole entry): as above

## CCCCOCCOc1ccc(-c2ccc3c(c2)/C=C(/C(=O)Nc2ccc([S@@+]([O-])Cc4cncn4CCC)cc2)CCCN3CC(C)C)cc1 [TAK-652]
[1]
  safety, tolerability: safe and well tolerated

## CCCCN1C(=O)[C@@H]([C@H](O)C2CCCCC2)NC(=O)C12CCN(Cc1ccc(Oc3ccc(C(=O)O)cc3)cc1)CC2 [GW873140]
HIV-1 [2]
  mean reductions in HIV-1 RNA levels: about 1 log10

## COC[C@@H](c1ccc(C(F)(F)F)cc1)N1CCN(C2(C)CCN(C(=O)c3c(C)ncnc3C)CC2)C[C@@H]1C [SCH-D]
[3]
  clinically significant changes in QTc intervals: none of the above-identified agents induced clinically significant changes in QTc intervals
HIV-1 [2]
  mean reductions in HIV-1 RNA levels: about 1 log10

## Cc1nnc(C(C)C)n1[C@H]1C[C@H]2CC[C@@H](C1)N2CC[C@H](NC(=O)C1CCC(F)(F)CC1)c1ccccc1 [UK-427,857]
[3]
  clinically significant changes in QTc intervals: none of the above-identified agents induced clinically significant changes in QTc intervals
HIV-1 [2]
  mean reductions in HIV-1 RNA levels: about 1 log10

## CCO/N=C(\c1ccc(Br)cc1)C1CCN(C2(C)CCN(C(=O)c3c(C)cc[n+]([O-])c3C)CC2)CC1 [SCH-C]
HIV-1 [2]
  mean reductions in HIV-1 RNA levels: about 1 log10

B1: PRO 140: humanized IgG4,κ monoclonal antibody (mAb) to the C-C chemokine receptor type 5 (CCR5) (antibody, chains of the INN, looked up, V domains shown)
VH: EVQLVESGGGLVKPGGSLRLSCAASGYTFSNYWIGWVRQAPGKGLEWIGDIYPGGNYIRNNEKFKDKTTLSADTSKNTAYLQMNSLKTEDTAVYYCGSSFGSNYVFAWFTYWGQGTLVTVSS
VL: DIVMTQSPLSLPVTPGEPASISCRSSQRLLSSYGHTYLHWYLQKPGQSPQLLIYEVSNRFSGVPDRFSGSGSGTDFTLKISRVEAEDVGVYYCSQSTHVPLTFGQGTKVEIK
CCR5 [4]
  receptor occupancy (reduction in the number of cells detected): > 85%
R5 HIV-1 [5]; 5 mg/kg IV group
  time mean viral load reductions of greater than 1 login were sustained post-treatment: 2-3 weeks
R5 HIV-1 [5]; after single IV dose, followed 58 days
  development of viral resistance to PRO 140: no significant development of viral resistance to PRO 140 was observed
R5 HIV-1 [5]; single 5 mg/kg IV dose
  viral load reduction on average: 1.83 login
CCR5 [6]
  Block Natural Activity of CCR5: No
[7]; 5 mg/kg single IV, serum
  mean AUC from time zero to infinity (AUC∞): 278 mg·days/L
[7]; in vivo, iv, 0.5 mg/kg
  mean AUC from time zero to infinity (AUC∞): 11.1 mg·days/L
[7]; in vivo, iv, 5 mg/kg
  mean serum half-life: 84 h
[8]
  PK profile: favorable PK profile similar to that seen in prior clinical studies
  PK samples, difference between subjects with and without virologic failure: no significant difference observed
[9]; 13 of 40 subjects
  subjects reporting 'general disorders and administration site conditions' AEs: 32.5%
[9]; 14 of 40 subjects
  subjects reporting 'infections and infestations' AEs: 35%
[9]; 63/89 AEs
  reported AEs deemed either unlikely or not related to study treatment: 70.7%
[9]; 72/89 AEs
  reported AEs deemed mild in nature: 80.8%
[9]; after at least one dose of PRO 140
  subjects who experienced one or more adverse events: 28 of 40 subjects
[9]; deemed not related to the study drug
  subjects who experienced an SAE: 1 of 40 subjects
[9]; visit T3
  CD4 cell count: 585 /mm^3 and 1043 /mm^3 and 760 /mm^3 and 962 /mm^3 and 667 /mm^3 and 755 /mm^3 and 1299 /mm^3 and 677 /mm^3 and 497 /mm^3 and 443 /mm^3 and 625 /mm^3 and 554 /mm^3 and 901 /mm^3 and 858 /mm^3 and 513 /mm^3
[9]; visit T5
  CD4 cell count: 585 /mm^3 and 465 /mm^3 and 356 /mm^3 and 994 /mm^3 and 704 /mm^3 and 831 /mm^3 and 642 /mm^3 and 509 /mm^3 and 514 /mm^3 and 859 /mm^3 and 665 /mm^3 and 785 /mm^3 and 646 /mm^3
[9]; overall review, 40 subjects
  CD4 cell counts throughout the Treatment Phase: maintained at stable levels
HIV-1 [10]; repetitive weekly administration of 324 mg SC
  drops in plasma HIV-1 RNA levels: approximately 1.5 log10
HIV-1 [10]; single subcutaneous doses of 324 mg
  drops in plasma HIV-1 RNA levels: approximately 1.0 log10
[11]
  CD4+ cell counts: trend towards increased CD4+ cell counts
[12]; in vivo
  Tolerability: No Toxicity
[12]; single dose of 324 mg
  time serum concentrations are maintained above the IC50 for clinical isolates of HIV-1: at least 2 weeks
HIV-1 [13]
  IC90: about 4 μg/ml
R5 HIV-1 [14]; 324 mg SC doses
  persistence of antiviral effects after the final dose: one week
R5 HIV-1 [14]; 324 mg SC weekly for three weeks
  mean nadir reduction in viral load: 1.65 log10
HIV-1 [15]; single 5 mg/kg IV dose
  mean nadir reduction in viral load: 1.8 log10
HIV-1 [15]; single 10 mg/kg IV dose
  mean nadir reduction in viral load: 1.8 log10
HIV-1 [15]; single IV infusion 5 or 10 mg/kg
  reduction in viral loads, all PRO 140-treated subjects: more than 10 fold
HIV-1 [15]; treatment groups (5 and 10 mg/kg IV)
  mean max log10 reductions in viral load: 1.83 log10
HIV-1 [16]
  Development of Resistance in Vitro: None at 40 weeks
  Viral Cross-Resistance: Limited
[17]
  duration of significant masking of CCR5 on circulating lymphocytes: 2-4 weeks
HIV-1 [18]
  control of HIV-1 replication: prolonged control of HIV-1 replication without viral escape
HIV-1 [19]; 22 out of 40 enrolled subjects
  enrolled subjects who completed 12 weeks of PRO 140 Monotherapy without experiencing virologic failure: 55%
HIV-1 [19]; CCR5 (N = 24)
  Proportion of Subjects with Virologic Failure within 4 weeks of PRO 140 Monotherapy: 1/24
  Proportion of Subjects with Virologic Failure within 12 weeks of PRO 140 Monotherapy: 8/24
HIV-1 [19]; CCR5- plus Dual/Mixed-tropic Population N = 40
  Virologic Failure anytime during Treatment Phase: 18 n
HIV-1 [19]; Total (N = 40)
  Proportion of Subjects with Virologic Failure within 12 weeks of PRO 140 Monotherapy: 18/40
HIV-1 [19]; Total (N = 40), 350 mg SC weekly
  Proportion of Subjects with Virologic Failure within 4 weeks of PRO 140 Monotherapy: 1/40
HIV-1 [19]; individual subjects reported as Dual/Mixed
  Virologic Failure: YES
HIV-1 [19]; [23]
  patients who experienced virologic failure after 11 weeks of monotherapy: 7 patients
  patients who had not experienced virologic failure after 10 weeks of monotherapy: five
  patients who passed four weeks of monotherapy (no virologic failure): 100%
HIV-1 [19]; interim, first cohort, excluding two dual-mix virus patients (six of ten)
  patients with viral load suppression after 8 weeks of monotherapy: 60%
HIV-1 [19]; once ART reinitiated, seventeen of eighteen subjects
  virologic failure subjects who achieved viral suppression to <400 and to 'Non Detectable' or <50 HIV-1 RNA copies/ml: 94.4%
[20]; day 8
  mean change in CD4+ cell counts from baseline: +129 cells/μL
[20]; day 15
  mean change in CD4+ cell counts from baseline: +96 cells/μL
[20]; day 22
  mean change in CD4+ cell counts from baseline: +83 cells/μL
[20]; in vivo, iv
  effect on QTc interval or other electrocardiographic parameters: no significant effect
HIV-1 [21]; Total (N = 16)
  Proportion of Subjects with Virologic Failure within 24 weeks of PRO 140 Monotherapy: 4/16
HIV-1 [21]; four out of 16 subjects
  subjects experiencing virologic failure in the Extension study: 25%
HIV-1 [21]; individual subjects, interim, includes duration from PRO 140 Substitution study
  Time on PRO 140 Monotherapy: 27 # of weeks (3×) and 28 # of weeks (2×) and 31 # of weeks and 22 # of weeks (5×) and 24 # of weeks and 29 # of weeks and 26 # of weeks
HIV-1 [21]; interim, first TS study plus Extension
  subjects with more than 20 weeks of PRO 140 monotherapy: 10 out of 16 subjects and 14 out of 16 subjects
HIV-1 [21]; ongoing extension study
  duration of complete viral-load suppression: ~11 months
HIV-1 [22]
  trough concentrations at which maximum virologic suppression is expected: ≥ 5 μg/mL
